B1: Serine/threonine-protein kinase PAK 2 (Homo sapiens), Q13177 (parent)
chain: MSDNGELEDKPPAPPVRMSSTIFSTGGKDPLSANHSLKPLPSVPEEKKPRHKIISIFSGTEKGSKKKEKERPEISPPSDFEHTIHVGFDAVTGEFTGMPEQWARLLQTSNITKLEQKKNPQAVLDVLKFYDSNTVKQKYLSFTPPEKDGFPSGTPALNAKGTEAPAVVTEEEDDDEETAPPVIAPRPDHTKSIYTRSVIDPVPAPVGDSHVDGAAKSLDKQKKKTKMTDEEIMEKLRTIVSIGDPKKKYTRYEKIGQGASGTVFTATDVALGQEVAIKQINLQKQPKKELIINEILVMKELKNPNIVNFLDSYLVGDELFVVMEYLAGGSLTDVVTETCMDEAQIAAVCRECLQALEFLHANQVIHRDIKSDNVLLGMEGSVKLTDFGFCAQITPEQSKRSTMVGTPYWMAPEVVTRKAYGPKVDIWSLGIMAIEMVEGEPPYLNENPLRALYLIATNGTPELQNPEKLSPIFRDFLNRCLEMDVEKRGSAKELLQHPFLKLAKPLSSLTPLIMAAKEAMKSNR

Variants of: B1
Conditions: with limk1_human LIMK1, P53667
Sequence of limk1_human LIMK1, P53667 (P53667 whole entry, looked up): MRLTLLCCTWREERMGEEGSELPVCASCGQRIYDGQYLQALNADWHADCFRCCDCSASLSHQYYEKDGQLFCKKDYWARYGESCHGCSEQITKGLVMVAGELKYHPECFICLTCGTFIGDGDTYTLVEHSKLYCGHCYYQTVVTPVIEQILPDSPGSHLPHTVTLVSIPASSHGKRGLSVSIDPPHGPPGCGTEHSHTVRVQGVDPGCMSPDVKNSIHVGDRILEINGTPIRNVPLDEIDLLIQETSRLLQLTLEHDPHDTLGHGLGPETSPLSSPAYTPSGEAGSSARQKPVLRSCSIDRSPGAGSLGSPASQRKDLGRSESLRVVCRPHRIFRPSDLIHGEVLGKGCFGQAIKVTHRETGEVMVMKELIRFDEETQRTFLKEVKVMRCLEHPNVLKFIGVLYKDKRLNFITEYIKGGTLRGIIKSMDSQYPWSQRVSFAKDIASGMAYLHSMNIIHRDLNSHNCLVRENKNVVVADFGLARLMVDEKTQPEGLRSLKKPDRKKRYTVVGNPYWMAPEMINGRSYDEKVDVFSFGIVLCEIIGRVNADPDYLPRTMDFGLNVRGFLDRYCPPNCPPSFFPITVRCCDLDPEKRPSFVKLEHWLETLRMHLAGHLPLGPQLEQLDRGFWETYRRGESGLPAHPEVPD

| effect of a mutation on the interaction | Variant |
| --- | --- |
| increasing interaction | L449Q |
